Measurements from patent publication US20230220098A1, “THERAPEUTIC DRUG FOR POLYCYTHEMIA” (PERSEUS PROTEOMICS INC., priority 2019, published 2023).

Legend:
[1] = system: HEL cells; experiment: Combined effects of TfR436 and hydroxyurea on cell growth and cell death; type: cell-based; conditions: 72 hours
Protocol: HEL cells were cultured in an RPMI-1640 (Sigma-Aldrich)+10% FBS (Sigma-Aldrich)+1% PenStrep (Gibco) medium, and were then adjusted to 20000 cells/mL with the same medium as described above. Hydroxyurea (Wako Pure Chemical Industries, Ltd.) was weighed and was then dissolved in a concentration of 100 mM in distilled water for injection (Otsuka Pharmaceutical). The thus adjusted cell solution was seeded on a 96-well plate (Thermo SCIENTIFIC) in an amount of 100 μL/well. […]
From the plate after completion of the culture, the cultured cells in each well were dispensed into a V-bottom plate (Costar) in an amount of 100 μL, while pipetting. […] Then, the fluorescence of FL2 and the number of cells were measured. From the obtained results, the number of living cells (PI negative) and the number of dead cells (PI positive) were calculated, and thereafter, Viability (the number of PI-negative cells/the total number of cells×100) (%) and cell death percentage (100−Viability) (%) were calculated. Furthermore, the growth percentage in each well was calculated, when the number of living cells in the cell growth control was set to be 100%. […]

[2] = system: PV patient-derived hematopoietic stem cells; experiment: EPO-independent erythroblast (BFU-E/CFU-E) colony assay; type: cell-based, human
Protocol: PV patient-derived hematopoietic stem cells are characterized in that BFU-E or CFU-E is formed in the cells even in the absence of erythropoietin (EPO). The activity of TfR436 to inhibit the formation of these colonies was examined.
The peripheral blood of a PV patient, which had been obtained by phlebotomy, was dispensed into three 50-mL centrifuge tubes in an amount of 20 mL each, and an equal amount of PBS (Gibco) was then added to each tube, followed by mixing. Thereafter, 15 mL of LymphoSep, Lymphocyte Separation Media (MP Biomedicals™) was dispensed into […] novel 50-mL centrifuge tubes, and the peripheral blood diluted with PBS was then slowly added thereto in an amount of 30 mL each, and the obtained mixture was then centrifuged at 1,500 rpm at room temperature for 30 minutes. After completion of the centrifugation, the plasma as a supernatant was removed, and a PBMC layer was collected by transfer pipetting. The collected PBMC layer was suspended in 20 mL of PBS+2% FBS (Gibco). The thus obtained suspension was further centrifuged at 1350 rpm at room temperature for 10 minutes, a supernatant was then removed, and the residue was then suspended in 1 to 5 mL of IMDM (Nacalai Tesque)+2% FBS. Using 0.2% Trypan Blue, the number of cells was counted, and the cells were adjusted to 2×10^6 cells/mL by addition of IMDM+2% FBS.
TfR436 and a human IgG1 antibody used as a negative control were each diluted with IMDM+2% FBS to an antibody concentration of […]. MethoCult™ H4534 Classic WithoutEPO (STEMCELL TECHNOLOGIES) was dispensed into seven 14-mL round bottle tubes in an amount of 3 mL each, and 300 jut of the above-prepared PBMC was then added thereto. Thereafter, an antibody-diluted solution or 3.3 μL of IMDM+2% FBS (control) was further added thereto, followed by full mixing. Thereafter, the reaction mixture was seeded on two 35-mm culture dishes in an amount of 1 mL each. This mixture was cultured at 37° C. in a 5% CO2 incubator for 14 days. After completion of the culture, the 35-mm culture dishes were observed under a microscope, and the number of the formed BFU-E or CFU-E colonies was then counted. The colony formation percentage with respect to the number of colonies obtained by a culture without addition of antibodies was then calculated.

B1: TfR436: anti-human transferrin receptor antibody, VH SEQ ID NO: 7 and VL SEQ ID NO: 8, described in WO2014/073641; called PPMX-T003 in Tables 3 and 4 (antibody, listed as Homo sapiens, V domains shown)
VH: DVQLVQSGGGVVQPGRSLRLSCAASGFPFKSYGMHWVRQAPGKGLEWVAVISYDGSNKYYADSVKGRFTISRDNSKNTLYLQMNSLRGEDTAVYYCARDSNFWSGYYSPVDVWGQGTTVTVSS
VL: NFMLTQPHSVSESPGKTVTISCTRSSGSIASNSVQWYQQRPGSAPITVIYEDTQRPSGVPDRFSGSIDSSSNSASLTISGLQTEDEADYYCQSYDSAYHWVFGGGTKLAVL
- cell growth inhibition, combined use with hydroxyurea ([1]; Table 3): synergistic cell growth inhibition effects were observed from a half or more of combined uses
- cell death percentage, combined use with hydroxyurea ([1]; all combined uses except lowest concentrations of both, Table 4): synergistic cell death-enhancing effects
- formation of erythroblast colonies ([2]; 100 ng/mL or more, 14 days, without EPO): almost completely inhibited
- colony formation percentage with respect to culture without addition of antibodies ([2]; pt No. 1, 10 ng/mL): 87.1%
- colony formation percentage with respect to culture without addition of antibodies ([2]; pt No. 1, 100 ng/mL): 0.0%
- colony formation percentage with respect to culture without addition of antibodies ([2]; pt No. 1, 1000 ng/mL): 0.0%
- colony formation percentage with respect to culture without addition of antibodies ([2]; pt No. 2, 10 ng/mL): 149.0%
- colony formation percentage with respect to culture without addition of antibodies ([2]; pt No. 2, 100 ng/mL): 2.1%
- colony formation percentage with respect to culture without addition of antibodies ([2]; pt No. 2, 1000 ng/mL): 0.0%
- colony formation percentage with respect to culture without addition of antibodies ([2]; pt No. 3, 10 ng/mL): 91.7%
- colony formation percentage with respect to culture without addition of antibodies ([2]; pt No. 3, 100 ng/mL): 0.0%
- colony formation percentage with respect to culture without addition of antibodies ([2]; pt No. 3, 1000 ng/mL): 0.0%
- colony formation percentage with respect to culture without addition of antibodies ([2]; pt No. 7, 10 ng/mL): 63.6%
- colony formation percentage with respect to culture without addition of antibodies ([2]; pt No. 7, 100 ng/mL): 0.0%
- colony formation percentage with respect to culture without addition of antibodies ([2]; pt No. 7, 1000 ng/mL): 0.0%
- colony formation percentage with respect to culture without addition of antibodies ([2]; pt No. 9, 10 ng/mL): 63.3%
- colony formation percentage with respect to culture without addition of antibodies ([2]; pt No. 9, 100 ng/mL): 0.0%
- colony formation percentage with respect to culture without addition of antibodies ([2]; pt No. 9, 1000 ng/mL): 1.0%
- colony formation percentage with respect to culture without addition of antibodies ([2]; pt No. 11, 10 ng/mL): 80.8%
- colony formation percentage with respect to culture without addition of antibodies ([2]; pt No. 11, 100 ng/mL): 0.0%
- colony formation percentage with respect to culture without addition of antibodies ([2]; pt No. 11, 1000 ng/mL): 0.0%
- colony formation percentage with respect to culture without addition of antibodies ([2]; pt No. 13, 10 ng/mL): 35.2%
- colony formation percentage with respect to culture without addition of antibodies ([2]; pt No. 13, 100 ng/mL): 23.9%
- colony formation percentage with respect to culture without addition of antibodies ([2]; pt No. 13, 1000 ng/mL): 19.7%
- colony formation percentage with respect to culture without addition of antibodies ([2]; pt No. 14, 10 ng/mL): 68.9%
- colony formation percentage with respect to culture without addition of antibodies ([2]; pt No. 14, 100 ng/mL): 0.0%
- colony formation percentage with respect to culture without addition of antibodies ([2]; pt No. 14, 1000 ng/mL): 0.0%
- colony formation percentage with respect to culture without addition of antibodies ([2]; pt No. 15, 10 ng/mL): 6.7%
- colony formation percentage with respect to culture without addition of antibodies ([2]; pt No. 15, 100 ng/mL): 0.0%
- colony formation percentage with respect to culture without addition of antibodies ([2]; pt No. 15, 1000 ng/mL): 3.3%
- colony formation percentage with respect to culture without addition of antibodies ([2]; pt No. 18, 10 ng/mL): 47.6%
- colony formation percentage with respect to culture without addition of antibodies ([2]; pt No. 18, 100 ng/mL): 0.0%
- colony formation percentage with respect to culture without addition of antibodies ([2]; pt No. 18, 1000 ng/mL): 0.0%
- colony formation percentage with respect to culture without addition of antibodies ([2]; pt No. 20, 10 ng/mL): 143.8%
- colony formation percentage with respect to culture without addition of antibodies ([2]; pt No. 20, 100 ng/mL): 0.0%
- colony formation percentage with respect to culture without addition of antibodies ([2]; pt No. 20, 1000 ng/mL): 0.0%
